Holding throughout (test): cell_activity
For data set [1], the system named is I-ScaI D90S D90S. The settings on record: catalytically inactive, background; binding not tested.
In data set [2] the test system is I-ScaI. The settings on record: three site copies in pBar2, E. coli.
The test system of data set [3] is I-ScaI I250N I250N. To be noted: three site copies in pBar2, E. coli.

For the sequence “TGAGGTGCACTAGTTA (double strand) [I-ScaI site]”, the activity in data set [1] was 18 % survival; in data set [2], 65 % survival; in data set [3], 27 % survival.

These data come from patent US7476500.
